B1: MA3 (ssDNA)
DNA: AACCGCCCAAATCCCTAAGAGTCGGACTGCAACCTATGCTATCGTTGATGTCTGTCCAAGCAACACAGACACACTACACACGCACA

What was measured:
[1] = tested on: MA3 (DNA, aptamer) AACCGCCCAAATCCCTAAGAGTCGGACTGCAACCTATGCTATCGTTGATGTCTGTCCAAGCAACACAGACACACTACACACGCACA; test: fluorescence quenching of doxorubicin; settings: aqueous solution, 1 h; Dox 3 nM as printed; intercalation; quenching complete at aptamer/Dox 0.1
[2] = target: T1, MUC1 peptide1 (APDTRPAPG epitope) (UniProt P15941); test: flow cytometry, bead binding; Hanks buffer (binding buffer), 37 C, 30 min, 200 ul; aptamer DNA heated 95 C 5 min then cooled to 0 C (stated for SELEX pool and Dox loading); pH not stated; settings: tags: EDC-coupled to carboxylated magnetic beads; label: 5'-FITC
T1 chain: APDTRPAPG

[3] = target: T2, MUC1 peptide2 (entire tandem repeat) (UniProt P15941); test: as above; settings: tags: EDC-coupled to magnetic beads; label: 5'-FITC
T2 chain: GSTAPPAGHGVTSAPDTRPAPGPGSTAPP

Row | Molecule | binding [1] | Kd [2] [µM] | binding result [3]
1 | COc1cccc2c1C(=O)c1c(O)c3c(c(O)c1C2=O)C[C@@](O)(C(=O)CO)C[C@@H]3O[C@H]1C[C@H](N)[C@H](O)[C@H](C)O1 | yes | – | –
2 | B1 | – | 0.0383 | binds
